Measured values from the domain aggregation screens of Martell et al. (2025).

assay: soluble fraction after stress (log2 fold change); higher = more stays soluble; pooled small domains, quantitative proteomics; details: stress: 75 degC
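Also: 20 min heating vs room temperature control held 20 min.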

Row | Sequence | soluble fraction (log2)
1 | HMNNDFIVKSTDSHKVNLRSQPDTHADIIKRLDDHTIVEKLKTVRKNWYLVQLKDTTTQGYVHKSQLERV | -0.357
2 | HMNNDFVERLRKLFGHASMAEIARRIDVPHATIRNYFQGRLPAPEVLIKLARETGVSLNWLLTGEGKMFA | -1.19
3 | HMNNENELSSIISKVLEENPAEKERFLNGEKKLAGFFMGKIMKATKGTADPKKAAQLLNEIL | 0.311
4 | HMNNFNVVVGKAIKNSFNTRENYITINAGKVLGIKTDMGVINDKGIVGIVEKTSKDFATIQSVLNIKS | 0.177
5 | HMNNGTDGLTTRLRRAILAGQYTFKERLPSERQLAEHFNTSRGTVRKVLQRLTTMNLVEQRAGSGTYVRYG | -0.302
6 | HMNNIGSKIKSAKILNNLDDNQLSEITGIDKLQLRSIQDGQVNPTKMELEIISKALKLPTNYFTK | -0.115
7 | HMNNIIYLIANKLDVGKRLDQFITIRTEFSRQRVINLIEDGYVKLNNKIINLKKYKIKGDEKIEITIPEIR | -1.32
8 | HMNNKVAVKSGYYFEIFNKEEIPTTLAKTKQKVKINNIQYDLYQGMSLDDERKIDDMFGDRMGYSIDDY | -1.07
9 | HMNNKVAVKSGYYFELFDKDEIPATLEKMKQKVKIDNIKYDLYQGTSLEDERKIDTMFGEKMGYSIDDYI | -0.0968
10 | HMNNLVTRREVEILGWIKEGKTTSDIAGILSLSPFTVKNHVQNILKKLGARSRSHAVAQAINLGLLH | -1.4
11 | HMNNPISMQKLRQVIRLYGQGKGTKSINSMLGVSRNTIKKYLQVYHSSGINYESFLAMSDKELSAVFLV | -0.509
12 | HMNNQVTFSKFLNEVEDGRVVEVNIQGNNITGVLSDGSKFKTFSPNYPNLVEKLSEKGVSINASPL | 0.0934
13 | HMNNTIKFSVDENNSGKRLDVYLTENINHLTRSFLKKLIEKEQVKLNKKVLTSPATKVKTKDQITINIIE | 0.0625
14 | HMNNWYESSIKSLVEEYFREHGFSVVFDSSEFWDVFIEKYHKQIPSSQIALFDQVAAEARSYAFNKK | -0.0798
15 | HMNPETLTNGSVVKMSKANLSDELIIDMINNSPARFDLSSGALRSLEGEGVSKAVIESMKRATSG | 0.283
16 | HMNPETLTNSSVIKMSKANLSDELITDMILNSPVKFDLSAGAIKTLESEGVTPAVLESMKNAASK | 0.131
17 | HMNPFTHEEINLMSIYNAAGTREGLIAALTEMWGYLDAEETELRELADSALAKLRGITDAEYAALELE | -1.19
18 | HMNPGAYQVKAGEGLIGLSRRYNVPVDVLASVNNLNTTSSLRVGQTITIPTAAQVNRITQQAQ | 0.216
19 | HMNPGHAERGKEIVEVFLRNNGELSMREIAEKSNITITQARRRVNKLLDQGIVEATAPVQSRNRKYRIK | 0.186
20 | HMNPIEAQIEELKNKDQKTAYQALKHLLAISETRAEVSYYFDRFVALLQDPQSYVRTRGLLLIGA | 0.584
21 | HMNPLLSAYLAEVERGLQGLTAGRRRLVLRELEAHLLDEAEARGLLTEEDMRALLMEKEPPERLAQEIAQ | -0.253
22 | HMNPMLEPAGEIRLSDGVLLRWQSERLPGDDTVRGPGSLYELGLYRVKVRVSAPQQGVRESSVELAGWRQV | -0.0501
23 | HMNPMRYLVVPSQETETWKEYLVSKEWLERKYRIETEGDNRAIPLSNLFPKIVPIELSNLEIIEKEAFS | -0.694
24 | HMNPNEVQIPDLVNKTEDEAEQILKDLKLKLVVKSEEYNENIEKGKIISQDPPYQENYTIKEHSEISIVIS | 0.335
25 | HMNPSRPASKEELLGLFEHLERALDAVTFFRPAEKKPVVVQTLRAMLTKASFTEQDIRTMRGVIAALEN | -1.59
26 | HMNPYQDSILLWKSFDTPLTNEDFMGLSKEELRIARNEIYAAYGRIFTSQDLIDYFNSKPWYQGTTPA | -0.313
27 | HMNQDQDLSRIKGIGPEMVDRLHAQGVETLEQIAAMQMEQLKKLDQQISGNGKAVREQWAEQAKQLLTT | 0.099
28 | HMNQEFRMPNAIKGVELSEENKQQLTQGEKVFLEGMTSAKGSLFDAYVYIDQEKKTLAFDFPEK | 0.0813

Row | Sequence | soluble fraction (log2)
29 | HMNQKTQMTKQILAESLKKLMLHHSFEKITIKDITDAAGFIRPTFYNHFKDKYDLVEWIFTEEI | -0.287
30 | HMNQKVRQLLSQAQAEMERKNYKQAIKLLDQALAIEPHSGELHFMKGYAWMSMGEFEKALESLYEARNYA | -1.4
31 | HMNQPRQRKVIFELIDERNALERVLMHFAHLEKQVEKIDERKYQVTLYYDKEDETEILIRVLSFG | -2.01
32 | HMNQTEKSKITHNELLKAAHSLFIEQGFNHTTITDIVTRAGYSTGIFYKHYKTKTDILVELWTNYIE | -2.27
33 | HMNQWQLLSEDGAILGTRVLYHPHETEQPFTRSLSGVKIPAHVQSVTIRAGDLVHGFGGREIQMQLPPIV | -0.0313
34 | HMNREENIQIGRDLLERELRKQGMDLQENLRQEVLLDGAKKLGFNNTDDLLAAIGDLKVTPAMFIGKIA | 0.0484
35 | HMNREMLVHAIGQLKEKYASALELKYWHGFTEREIAAFLNISEKAANSRLVRGRVMLRKLLE | 0.0264
36 | HMNREYELTAEESGQRLDKYLAGEMTDLSRSRIKELVQAGEILVNGKKSKVSYKVQKDDLIQVIVLPLE | -0.402
37 | HMNRITEFVVPEGTKKIRADKLLAESFPDHSRSDFHRAFDASLVRLEGQPISKNRKISQGDVLVFEMPEI | 0.505
38 | HMNRPQDLGEPYDGQFREHPEAWAFYAAQSPSYRRSASWWVLGAKQEVTRQRRLAALIDASAQGTRIPALT | -1.8
39 | HMNRREFQFSEGSSNKFWSIELRDQSFIVHYGKIGTNGQAQEKTFATADAAKKEHDKLIAEKTKKGYVEVQ | -0.34
40 | HMNRTKYYDFEGHPAKVVRLTLPVYLNKIGDEVVVYDSQKFAREASPISESQYNRMVAEIFQP | -0.233
41 | HMNSEAVQNVIDKISALPDDITAKAKSQIEEARAAYEALSDSEKARVTNYSTLVAAEKKLASVVKD | 0.558
42 | HMNSEERVLDTASKWLVKLDEGLDESEAQVLKVWLATPLHRDTFLEMVALWDKMSVLNELADIV | -1.65
43 | HMNSISDSELKALIKNNYLKFLKRIASDEEIEYHFNQIKNKTILLDELDSIFQNSQEYKDLVEHNNKIQN | -0.268
44 | HMNSKQELAYQTIRARIVDGSYGPGYRIVIDEVARELGVSPIPVREAVRRLEAEGLITYTRHAGARVVA | -0.219
45 | HMNSLQLGSRGPTVSALQAKLNTMLVPSPRLVADGSFGPKTAQAVKAFQQMKRLVADGVVGPKTAAALGLS | -0.156
46 | HMNSLQNNLKQARTRVGLTQGVLASQAGISRQAYSTLESGSANPSTEVALRLAQALQERVELLFYLPER | -0.948
47 | HMNSNKFANAAAVAVAEKPADSYNPLFIYGPSGVGKTHLLYAIANEIHKHHPDYNIVYIKGDQFTNELIN | 0.088
48 | HMNSNLSLTSYEEKIFFLLEKEKNLDELILESSFKAGEILSILMDLEIKHAIVSIPGGKYRRK | -3.85
49 | HMNSNQESFENWLSANSWYNKDRAMRVFADSLGQELRNSGVSFEKALTQISAEVRKEFSHKFQ | -0.491
50 | HMNSNSLSFSKFMQEVEAGRVIEVQIKGNDIQGELSDGSKFKTYSPNYPNLVDKLSENKVSIVATPL | -0.0878
51 | HMNSNTIIFSQFLSEVDNGRVTQVQIQGNNIKGTLSNGKDFITYAPNDPNLIEKLTSKGVSISASPID | 0.0526
52 | HMNSNTIIINDIMTKIGKEVKNFTEIYSIILKALAEHGEEYVRTNTEYALKNFTGNFDIFLEQLLLK | -0.207
53 | HMNSRAERKEAAKEAIRNLLREGMTFEELTGPWLEKRFAEEPFNRGARSWQMLISEIKEEPEFQHL | -0.014
54 | HMNSRQPEEEALFELLAKNPYSDEQLEEIRIAIGSGISYKDVLVIADIKNTAKQMKKLRLKFTKDTG | -0.561
55 | HMNSTEQQTERFLATLTSLGGNAGNQRLQEALGWQGSTYQRIKQHLLDEGRIRTGRGRGGSVALSEATAT | 0.0863
